Measured values published in US7220554B2, “Methods for identifying inhibitors” (priority 2003, dated 2007).

Columns and labels:
HIV-gpt(Δvif) = assay: Titers of HIV-gpt(Δvif) virions made in 293T or COS7 cells, infectivity in HeLa-CD4 cells; assay type: cell-based, HIV-1; details: for antiviral activity of chimera: titer of virions from 293T cells in the absence of Vif: FIG. 12A
From the text: (§1) To analyze the antiviral activity of pcDNA3.1-APOBEC3G-Myc, human 293T and African green monkey COS7 cells were transiently cotransfected with pcDNA3.1-APOBEC3G-Myc in the presence of vectors for expression of HIV-gpt(wt) or HIV-gpt(Δvif) [these are derivatives of wild-type (wt) or vif deleted (Δvif) HIV-1 with the bacterial gpt gene replacing the viral env gene; Madani & Kabat, J. Virol. […] 74, 5982–5987, 2000]. Virions were subsequently harvested from the culture media and analyzed their infectivities in HeLa-CD4 (clone HI-J) cells. […] Similar results were obtained with owl monkey kidney cells. Thus, HIV-1 Vif neutralizes human APOBEC3G-Myc in both human and monkey cells.

HIV-1 encoded proteins = assay: Immunoblotting of HIV-1-encoded proteins (Gag, Vif) in cotransfected producer cells; assay type: cell-based
From the text: Expression vectors: pHIV-gpt(wt) and its derivative pHIV-gpt(Δvif) were previously described (Madani & Kabat, J. Virol. 72, 10251–10255, 1998; Page et al., J Virol 64, 5270–5276, 1990; Madani & Kabat, J. Virol. 74, 5982–5987, 2000). pcDNA3.1-Vif was donated by D. Gabuzda (Dana-Farber Cancer Institute, Harvard, Boston, Mass.). Rev-dependent plasmids for expression of the Vif mutants Δ2, Δ5, Δ6, Δ7, Δ9, Δ10, Δ12 and Δ13 (Simon et al., J. Virol. 73, 2675–2681, 1999) were provided by M. Malim (Medical Research Council, Cambridge, UK) and were coexpressed with pHIV-gpt(Δvif). APOBEC3G cDNA was cloned from H9 cells (nonpermissive) by reverse transcriptase-PCR (Barnes, Proc. Natl. Acad. Sci. USA 91, 2216–2220, 1994; Sambrook et al., Molecular Cloning. A Laboratory Manual, Chapter 14, 14.5–14.34., CSHL Press, Cold Spring Harbor, 1989) using primers complementary to the 5′ and 3′ ends of APOBEC3G coding region (Sheehy et al., Nature 418, 646–650, 2002) (upstream primer, 5′-[…]-3′ (SEQ ID NO: 15) containing an XhoI restriction site [underlined]; downstream primer, 5′-[…]-3′ (SEQ ID NO: 16) containing a SfuI restriction site [underlined]). […] Virus-containing fractions were detected by immunoblotting using HIV Immunoglobulin serum (AIDS Research & Reference Reagent Program, Division of AIDS, NIAID, NIH: contributed by NABI and NHLBI). […]

HIV-gpt(wt) = assay: Titers of HIV-gpt(wt) virions made in 293T or COS7 cells, infectivity in HeLa-CD4 cells; assay type: cell-based, HIV-1; details: producer cells 293T and COS7 cotransfected
From the text: as §1

Molecule | antiviral activity of chimera: titer of virions from 293T cells in the absence of Vif (HIV-gpt(Δvif)) | decrease of titers of HIV-gpt(Δvif) virions (HIV-gpt(Δvif); producer cells 293T and COS7 cotransfected) | synthesis of HIV-1 encoded proteins in the producer cells or their packaging into virions (HIV-1 encoded proteins) | expression of Vif (HIV-1 encoded proteins; FIGS. 3A and 3B) | effect on titers of HIV-gpt(wt) (HIV-gpt(wt))
APOBEC3G-Myc: fusion of human APOBEC3G with Myc epitope and 6×His tag, SEQ ID NO: 2 (protein, Synthetic construct human APOBEC3G fused to Myc) MKPHFRNTVERMYRDTFSYNFYNRPILSRRNTVWLCYEVKTKGPSRPPLDAKIFRGQVYSELKYHPEMRFFHWFSKWRKLHRDQEYEVTWYISWSPCTKCTRDMATFLAEDPKVTLTIFVARLYYFWDPDYQEALRSLCQKRDGPRATMKIMNYDEFQHCWSKFVYSQRELFEPWNNLPKYYILLHIMLGEILRHSMDPPTFTFNFNNEPWVRGRHETYLCYEVERMHNDTWVLLNQRRGFLCNQAPHKHGFLEGRHAELCFLDVIPFWKLDLDQDYRVTCFTSWSPCFSCAQEMAKFISKNKHVSLCIFTARIYDDQGRCQEGLRTLAEAGAKISIMTYSEFKHCWDTFVDHQGCPFQPWDGLDEHSQDLSGRLRAILQNQENFEQKLISEEDLNMHTGHHHHHH | low titer | 25–100 fold | no significant or reproducible effect | no effect | no effect
APOBEC3G-luciferase (protein, Synthetic construct human APOBEC3G fused to luciferase) MKPHFRNTVERMYRDTFSYNFYNRPILSRRNTVWLCYEVKTKGPSRPPLDAKIFRGQVYSELKYHPEMRFFHWFSKWRKLHRDQEYEVTWYISWSPCTKCTRDMATFLAEDPKVTLTIFVARLYYFWDPDYQEALRSLCQKRDGPRATMKIMNYDEFQHCWSKFVYSQRELFEPWNNLPKYYILLHIMLGEILRHSMDPPTFTFNFNNEPWVRGRHETYLCYEVERMHNDTWVLLNQRRGFLCNQAPHKHGFLEGRHAELCFLDVIPFWKLDLDQDYRVTCFTSWSPCFSCAQEMAKFISKNKHVSLCIFTARIYDDQGRCQEGLRTLAEAGAKISIMTYSEFKHCWDTFVDHQGCPFQPWDGLDEHSQDLSGRLRAILQNQENKLSMVTDAKNIKKGPAPFYPLEDGTAGEQLHKAMKRYALVPGTIAFTDAHIEVDITYAEYFEMSVRLAEAMKRYGLNTNHRIVVCSENSLQFFMPVLGALFIGVAVAPANDIYNERELLNSMGISQPTVVFVSKKGLQKILNVQKKLPIIQKIIIMDSKTDYQGFQSMYTFVTSHLPPGFNEYDFVPESFDRDKTIALIMNSSGSTGLPKGVALPHRTACVRFSHARDPIFGNQIIPDTAILSVVPFHHGFGMFTTLGYLICGFRVVLMYRFEEELFLRSLQDYKIQSALLVPTLFSFFAKSTLIDKYDLSNLHEIASGGAPLSKEVGEAVAKRFHLPGIRQGYGLTETTSAILITPEGDDKPGAVGKVVPFFEAKVVDLDTGKTLGVNQRGELCVRGPMIMSGYVNNPEATNALIDKDGWLHSGDIAYWDEDEHFFIVDRLKSLIKYKGYQVAPAELESILLQHPNIFDAGVAGLPDDDAGELPAAVVVLEHGKTMTEKEIVDYVASQVTTAKKLRGGVVFVDEVPKGLTGKLDARKIREILIKAKKGGKIAV | antiviral activity only in the absence of Vif |  |  |  | 
